Data on twelve molecules can be found in patent publication US20240417436A1 (BRIGHT PEAK THERAPEUTICS, published 2024).

First the molecules themselves.
T1: IL-2 receptor βγ complex on pan T cells (human, UniProt P14784 27-551; P31785 23-369)
T1 sequence (looked up) 1: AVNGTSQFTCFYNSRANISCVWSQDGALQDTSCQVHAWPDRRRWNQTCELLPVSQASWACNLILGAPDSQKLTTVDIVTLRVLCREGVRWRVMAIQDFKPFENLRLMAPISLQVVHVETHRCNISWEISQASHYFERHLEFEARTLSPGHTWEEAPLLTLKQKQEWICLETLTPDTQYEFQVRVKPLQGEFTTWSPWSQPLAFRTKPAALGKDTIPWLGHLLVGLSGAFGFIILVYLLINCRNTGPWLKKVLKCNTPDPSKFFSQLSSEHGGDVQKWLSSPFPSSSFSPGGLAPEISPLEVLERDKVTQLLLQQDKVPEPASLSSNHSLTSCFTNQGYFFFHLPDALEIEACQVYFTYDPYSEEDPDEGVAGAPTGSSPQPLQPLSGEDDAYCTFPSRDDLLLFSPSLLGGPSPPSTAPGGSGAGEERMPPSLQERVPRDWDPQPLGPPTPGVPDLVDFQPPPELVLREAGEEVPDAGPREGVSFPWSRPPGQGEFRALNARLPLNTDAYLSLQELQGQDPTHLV
T1 sequence (looked up) 2: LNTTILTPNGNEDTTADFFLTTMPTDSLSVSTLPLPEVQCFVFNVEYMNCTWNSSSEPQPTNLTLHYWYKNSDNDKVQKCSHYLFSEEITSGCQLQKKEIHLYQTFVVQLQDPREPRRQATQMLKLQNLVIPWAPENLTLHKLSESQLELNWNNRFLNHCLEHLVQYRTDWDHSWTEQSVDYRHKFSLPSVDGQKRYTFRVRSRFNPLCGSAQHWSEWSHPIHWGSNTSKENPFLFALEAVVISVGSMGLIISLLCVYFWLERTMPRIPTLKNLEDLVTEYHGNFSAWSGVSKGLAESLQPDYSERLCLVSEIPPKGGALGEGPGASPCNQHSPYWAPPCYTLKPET

B1: CMP-118, MMP2 cleaved (ligand)
chain: APTSSSTKKTQLQLEHLLLDLQKILNGINNYKNPKLTR[Nle]L[hSer][Yn3″]KF[Ygp″][Nle]PKKATELKHLQCLEEELKPLEEVL[hSer]LAQSKNFHLRPRDLISNINVIVLELKGSETTF[hSer]CEYADETATIVEFLNRWITFSQSIISTLT
modifications: ends and bridges not checked; also: Lys23 side chain attached to cleavable peptide, MMP2-cleaved, remnant stays attached, cut site not given here
B2: CMP-124, MMP2 cleaved (ligand)
chain: APTSSSTKKTQLQLEHLLLDLQKILNGINNYKNPKLTR[Nle]L[hSer][Yn3″]KF[Ygp″][Nle]PKKATELKHLQCLEEELKPLEEVL[hSer]LAQSKNFHLRPRDLISNINVIVLELKGSETTF[hSer]CEYADETATIVEFLNRWITFSQSIISTLT
modifications: ends and bridges not checked; also: Lys23 side chain attached to cleavable peptide, MMP2-cleaved, remnant stays attached, cut site not given here
B3: CMP-120, MMP2 cleaved (ligand)
chain: APTSSSTKKTQLQLEHLLLDLQKILNGINNYKNPKLTR[Nle]L[hSer][Yn3″]KF[Ygp″][Nle]PKKATELKHLQCLEEELKPLEEVL[hSer]LAQSKNFHLRPRDLISNINVIVLELKGSETTF[hSer]CEYADETATIVEFLNRWITFSQSIISTLT
modifications: ends and bridges not checked; also: Lys23 side chain attached to cleavable peptide, MMP2-cleaved, remnant stays attached, cut site not given here
B4: CMP-122, MMP2 cleaved (ligand)
chain: APTSSSTKKTQLQLEHLLLDLQKILNGINNYKNPKLTR[Nle]L[hSer][Yn3″]KF[Ygp″][Nle]PKKATELKHLQCLEEELKPLEEVL[hSer]LAQSKNFHLRPRDLISNINVIVLELKGSETTF[hSer]CEYADETATIVEFLNRWITFSQSIISTLT
modifications: ends and bridges not checked; also: Lys23 side chain attached via PEG9 to cleavable peptide, MMP2-cleaved, remnant stays attached, cut site not given here
B5: CMP-127, MMP2 cleaved (ligand)
chain: APTSSSTKKTQLQLEHLLLDLQKILNGINNYKNPKLTR[Nle]L[hSer][Yn3″]KF[Ygp″][Nle]PKKATELKHLQCLEEELKPLEEVL[hSer]LAQSKNFHLRPRDLISNINVIVLELKGSETTF[hSer]CEYADETATIVEFLNRWITFSQSIISTLT
modifications: ends and bridges not checked; also: Lys23 side chain attached via PEG9 to cleavable peptide, MMP2-cleaved, remnant stays attached, cut site not given here
B6: CMP-128, MMP2 cleaved (ligand)
chain: APTSSSTKKTQLQLEHLLLDLQKILNGINNYKNPKLTR[Nle]L[hSer][Yn3″]KF[Ygp″][Nle]PKKATELKHLQCLEEELKPLEEVL[hSer]LAQSKNFHLRPRDLISNINVIVLELKGSETTF[hSer]CEYADETATIVEFLNRWITFSQSIISTLT
modifications: ends and bridges not checked; also: Lys23 side chain attached via PEG9 to cleavable peptide, MMP2-cleaved, remnant stays attached, cut site not given here
B7: CMP-126, MMP2 cleaved (ligand)
chain: APTSSSTKKTQLQLEHLLLDLQKILNGINNYKNPKLTR[Nle]L[hSer][Yn3″]KF[Ygp″][Nle]PKKATELKHLQCLEEELKPLEEVL[hSer]LAQSKNFHLRPRDLISNINVIVLELKGSETTF[hSer]CEYADETATIVEFLNRWITFSQSIISTLT
modifications: ends and bridges not checked; also: Lys23 side chain attached to cleavable peptide, MMP2-cleaved, remnant stays attached, cut site not given here
B8: CMP-125, MMP2 cleaved (ligand)
chain: APTSSSTKKTQLQLEHLLLDLQKILNGINNYKNPKLTR[Nle]L[hSer][Yn3″]KF[Ygp″][Nle]PKKATELKHLQCLEEELKPLEEVL[hSer]LAQSKNFHLRPRDLISNINVIVLELKGSETTF[hSer]CEYADETATIVEFLNRWITFSQSIISTLT
modifications: ends and bridges not checked; also: cleavable moiety on Lys23 side chain, not given here
B9: CMP-141, MMP2 cleaved (ligand)
chain: APTSSSTKKTQLQLEHLLLDLQKILNGINNYKNPKLTR[Nle]L[hSer][Yn3]KF[Ygp][Nle]PKKATELKHLQCLEEELKPLEEVL[hSer]LAQSKNFHLRPRDLISNINVIVLELKGSETTF[hSer]CEYADETATIVEFLNRWITFSQSIISTLT
modifications: not fully specified (residue 23); ends and bridges not checked; also: MMP2-cleaved, remnant of moiety on Lys23 side chain, not given here
B10: CMP-123, MMP2 cleaved (ligand)
chain: APTSSSTKKTQLQLEHLLLDLQKILNGINNYKNPKLTR[Nle]L[hSer][Yn3″]KF[Ygp″][Nle]PKKATELKHLQCLEEELKPLEEVL[hSer]LAQSKNFHLRPRDLISNINVIVLELKGSETTF[hSer]CEYADETATIVEFLNRWITFSQSIISTLT
modifications: ends and bridges not checked; also: Lys23 side chain attached via PEG9 to cleavable peptide, MMP2-cleaved, remnant stays attached, cut site not given here
B11: CMP-119, MMP2 cleaved (ligand)
chain: APTSSSTKKTQLQLEHLLLDLQKILNGINNYKNPKLTR[Nle]L[hSer][Yn3″]KF[Ygp″][Nle]PKKATELKHLQCLEEELKPLEEVL[hSer]LAQSKNFHLRPRDLISNINVIVLELKGSETTF[hSer]CEYADETATIVEFLNRWITFSQSIISTLT
modifications: ends and bridges not checked; also: Lys23 side chain attached to cleavable peptide, MMP2-cleaved, remnant stays attached, cut site not given here
B12: CMP-129, MMP2 cleaved (ligand)
chain: APTSSSTKKTQLQLEHLLLDLQKILNGINNYKNPKLTR[Nle]L[hSer][Yn3″]KF[Ygp″][Nle]PKKATELKHLQCLEEELKPLEEVL[hSer]LAQSKNFHLRPRDLISNINVIVLELKGSETTF[hSer]CEYADETATIVEFLNRWITFSQSIISTLT
modifications: ends and bridges not checked; also: Lys23 side chain attached via PEG9 to cleavable peptide, MMP2-cleaved, remnant stays attached, cut site not given here

Primed or numbered codes have the meaning given here. [ ]: non-standard residue; d: D form. Ygp″ = O-(PEG8-amino)-tyrosine (O-(8x polyethylene glycol-amino)-tyrosine); Yn3″ = O-(PEG9-azido)-tyrosine (O-(9x polyethylene glycol-azido)-tyrosine); Ygp = O-(8x polyethylene glycol-amino)-tyrosine; Yn3 = O-(9x polyethylene glycol-azido)-tyrosine; hSer = N[C@@H](CCO)C(=O)O; Nle = CCCC[C@H](N)C(=O)O

For this experiment, the target named is T1, IL-2 receptor βγ complex on pan T cells. Briefly: cell-based or functional assay.
For the molecule B1, the “Average EC50, pSTAT5 assay in pan T cells, MMP2 cleaved molecule” value (from here on “Average EC50, pSTAT5 assay”) was 0.9 nM. Regarding B2, the “Average EC50, pSTAT5 assay” value stood at 2.07 nM. In the case of B3 it was 0.7 nM; in that of B4, 3.55 nM. As for B5, the “Average EC50, pSTAT5 assay” value was 2.43 nM. To B6 belongs 3.68 nM. To B7 belongs 2.03 nM; to B8, 1.73 nM; to B9, 0.8 nM.

As to B10, the “Average EC50, pSTAT5 assay” value came out at 2.93 nM. For B11, the “Average EC50, pSTAT5 assay” value was found to be 0.63 nM. Consider B12, for which the “Average EC50, pSTAT5 assay” value was 1.4 nM.
